From patent publication US20160038588A1 (Amgen, published 2016)
Where no end group is shown, it is not given here.

T1: recombinant mature myostatin (human, produced in E. coli) (human, UniProt O14793 267-375)
T1 sequence (looked up): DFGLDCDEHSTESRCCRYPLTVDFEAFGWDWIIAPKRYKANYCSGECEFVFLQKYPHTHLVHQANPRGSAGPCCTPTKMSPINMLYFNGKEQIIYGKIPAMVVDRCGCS

B1: recombinant human activin receptor IIB/Fc chimera (R&D Systems) (Fc fusion, UniProt Q13705 19-134, looked up, not shown: a dimerising Fc or GST)
chain: SGRGEAETRECIYYNANWELERTNQSGLERCEGEQDKRLHCYASWRNSSGTIELVKKGCWLDDFNCYDRQECVATEENPQVYFCCCEGNFCNERFTHLPEAGGPEVTYEPPPTAPT

What was measured:
[1] = biological target: T1, recombinant mature myostatin (human, …); assay: cell-based or functional assay
[2] = biological target: T1, recombinant mature myostatin (human, …); assay: cell-based or functional assay; remark: listed apart in the source

Binder	IC50, C2C12 pMARE-luc assay [1] [nM]	IC50 (read off the curve) [2] [µM]
B1	~83	
QGHCTRWPWMCPPY (also: cysteine-constrained, bridge type not given here) [TN8-19 peptide]		~20
